This note sets out measurements from article PMC13147308, “Investigating the molecular mechanisms underlying the anti‐CRISPR function of AcrIIA13b protein”.

The series deals with T1, AcrIIA13b (shAcrIIA13b) (Staphylococcus haemolyticus, UniProt A0AAX7FLQ9 1-129).
T1 sequence: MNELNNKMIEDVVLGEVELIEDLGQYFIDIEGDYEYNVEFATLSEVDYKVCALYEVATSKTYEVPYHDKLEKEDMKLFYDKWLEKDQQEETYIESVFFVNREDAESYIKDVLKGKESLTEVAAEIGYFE
Description: EMSA; no Cas9; Cas9 EMSA: 100 mM NaCl, 50 mM Tris/HCl pH 8.0, 100 ug/mL BSA, 37 C (AcrIIA13b step at RT); 99 nM SauCas9, 90 nM sgRNA, 1.4 nM DNA, 4% gel 0.5x TBE. The conditions noted are these: protein: recombinant; tags: C-terminal His6 (pET21a); a tag-free version also exists; chain copies: 2; label: none (SYBR Gold stain); single strand, sgRNA hairpins. A general note: A gel shift assay detects complexes by their altered migration in electrophoresis.

B1: SauCas9 sgRNA (structured_RNA)
RNA: GCAGCUGAUCAGGAACAGCGGUUUUAGUACUCUGGAAACAGAAUCUACUAAAACAAGGCAAAAUGCCGUGUUUAUCUCGUCAACUUGUUGGCGAGAUUU
With B1, the binding result was “no binding”.
